Tests used:
mice = assay: Intestinal insulin delivery, blood glucose; format: in vivo
[1] = Procedure: Following ten hours of fasting, mice were orally gavaged with PBS (for control) or nanoparticle suspensions (100 mg/kg unless otherwise specified). Two hours later, their initial blood sugar was measured, and the animals were placed under anesthesia. Their intestines were surgically exposed, and insulin was injected at the predetermined dose (1 unit per kg body weight unless otherwise specified) into the duodenum. The mice were closed and secured with tissue adhesive, then kept under anesthesia as their blood sugar levels were monitored each hour for five hours. For comparison to the current standard of insulin delivery, subcutaneous injections were given to additional mice, into the scruff on their necks. To determine specific insulin concentrations, blood samples were collected and separated via centrifugation. The serum was subjected to ELISA analysis for human insulin (LifeTechnologies®, Carlsbad, CA) per the instructions of the kit manufacturer.

insulin
blood glucose response (mice; 1 U/kg subcutaneous): pronounced, but brief response | blood glucose, response to insulin dose (mice; increasing intestinal insulin dose, constant particle administration of 100 mg/kg): increased magnitude and duration of hypoglycemia | blood insulin concentration ([1]; intestinal insulin along with nanoparticles): slight elevations in blood insulin that persisted for at least four hours | return of blood insulin to normal levels ([1]; subcutaneous injection): shortly after two hours | time of spike in blood insulin concentration ([1]; subcutaneous injection): ≤ 30 min

From patent publication US20250144035A1, “Method of Increasing Epithelial Permeability Using Nanoparticles” (Carnegie Mellon University, priority 2017, published 2025)
